Reference: paper PMC3135476 (Molecular Biology of the Cell, 2011)

Tests used:
[1] = target: microtubules (U2OS cells) (human (endogenous in U2OS)) (UniProt P07437); assay: co-sedimentation
[2] = target: KRIT1 FERM domain, residues 417-736 (wild type) (human, UniProt O00522 417-736); assay: ITC
[3] = target: KRIT1(R452E) FERM domain, residues 417-736 (human, UniProt O00522 417-736, R452E); assay: ITC
Chain of KRIT1(R452E) FERM domain, residues 417-736 (O00522 417-736 R452E): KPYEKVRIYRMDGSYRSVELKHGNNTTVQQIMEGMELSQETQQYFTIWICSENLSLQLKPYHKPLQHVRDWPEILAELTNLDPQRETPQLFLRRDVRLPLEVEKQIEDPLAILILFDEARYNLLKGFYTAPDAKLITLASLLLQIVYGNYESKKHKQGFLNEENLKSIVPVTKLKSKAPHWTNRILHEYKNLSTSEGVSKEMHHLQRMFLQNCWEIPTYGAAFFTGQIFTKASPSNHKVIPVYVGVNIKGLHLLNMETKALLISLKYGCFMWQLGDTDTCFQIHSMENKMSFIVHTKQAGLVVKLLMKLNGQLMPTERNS

Chain of KRIT1 FERM domain, residues 417-736 (wild type) (O00522 417-736): as the sequence (O00522 417-736 R452E) above, with E36R counted along it
Chain of microtubules (U2OS cells) (human (endogenous in U2OS)) (P07437 whole entry, looked up, the tested form may be a part): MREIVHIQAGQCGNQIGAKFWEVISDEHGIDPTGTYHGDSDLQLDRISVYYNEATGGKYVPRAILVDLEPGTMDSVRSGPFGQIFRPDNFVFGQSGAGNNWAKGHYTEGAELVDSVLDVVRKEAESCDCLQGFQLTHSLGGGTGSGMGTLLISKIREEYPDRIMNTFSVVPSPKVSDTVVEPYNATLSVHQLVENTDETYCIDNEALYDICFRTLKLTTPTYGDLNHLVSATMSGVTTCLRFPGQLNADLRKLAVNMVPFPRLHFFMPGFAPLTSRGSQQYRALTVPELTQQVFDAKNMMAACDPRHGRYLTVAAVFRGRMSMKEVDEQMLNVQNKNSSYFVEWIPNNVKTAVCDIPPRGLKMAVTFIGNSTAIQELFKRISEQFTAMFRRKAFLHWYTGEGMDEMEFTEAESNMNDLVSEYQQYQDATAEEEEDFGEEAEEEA

Molecule	fold increase in association with microtubules over wild-type KRIT1 [1] [fold]	Kd [2] [µM]	Kd [3] [µM]
GFP-fused KRIT1(R452E) (U2OS) (from UniProt O00522 1-736) (natural protein)	8		
Human Rap1 isoform Rap1B (residues 1-167) bound to GMP-PNP (domain or fragment, UniProt P61224 1-167, looked up) MREYKLVVLGSGGVGKSALTVQFVQGIFVEKYDPTIEDSYRKQVEVDAQQCMLEILDTAGTEQFTAMRDLYMKNGQGFALVYSITAQSTFNDLQDLREQILRVKDTDDVPMILVGNKCDLEDERVVGKEQGQNLARQWNNCAFLESSAKSKINVNEIFYDLVRQINR		1.8 ± 0.25	67 ± 18.7
